Laboratory results from patent publication US20200172620A1 (Genentech, published 2020).
Numbering of substitutions follows the chain as printed.

Assays:
[1] = target: T1, human CD8 (as used in SPR) (human, UniProt P01732 22-182); test: SPR (Fab, by paragraph 255)
T1 construct: also called huCD8

[2] = target: T2, cynomolgous CD8 (as used in SPR) (cynomolgous monkey); test: SPR (Fab, by paragraph 255)
T2 construct: also called cyno CD8

[3] = target: T2, cynomolgous CD8 (as used in SPR); test: SPR, Fab
[4] = target: T1, human CD8 (as used in SPR); test: SPR
[5] = target: T3, cynomolgous CD8 on cells (FACS) (cynomolgous monkey); test: FACS
T3 construct: whole, on cells; also called cyno CD8

[6] = target: T4, human CD8 on cells (FACS) (human, UniProt P01732 22-235); test: FACS
T4 construct: whole, on cells
T4 sequence (P01732 22-235): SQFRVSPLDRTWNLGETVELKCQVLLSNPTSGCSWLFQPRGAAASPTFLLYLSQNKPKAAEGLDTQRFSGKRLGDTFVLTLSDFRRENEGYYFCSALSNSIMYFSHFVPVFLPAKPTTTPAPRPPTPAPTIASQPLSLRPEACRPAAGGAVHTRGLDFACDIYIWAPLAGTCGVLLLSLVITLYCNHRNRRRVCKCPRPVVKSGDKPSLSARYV

[7] = target: T5, rhesus CD8 on cells (FACS) (rhesus monkey, UniProt P01732 23-235 (human entry)); test: FACS
T5 construct: also called rhesus monkey CD8
T5 sequence (P01732 other isoform, or with tags, fused parts or gaps limits assumed): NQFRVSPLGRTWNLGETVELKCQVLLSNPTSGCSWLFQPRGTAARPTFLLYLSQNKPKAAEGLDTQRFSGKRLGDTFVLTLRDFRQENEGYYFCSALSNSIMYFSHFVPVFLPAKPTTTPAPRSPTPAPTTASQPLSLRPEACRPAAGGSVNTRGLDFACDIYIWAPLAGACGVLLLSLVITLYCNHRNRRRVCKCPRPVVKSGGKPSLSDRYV

[8] = target: T2, cynomolgous CD8 (as used in SPR); test: SPR
[9] = target: T1, human CD8 (as used in SPR); test: SPR, Fab
[10] = target: T4, human CD8 on cells (FACS); test: FACS titration on cells carrying human CD8 (legend paragraph 23: CHO cells expressing recombinant human CD8; text paragraph 256: PBMCs)
[11] = target: T6, rat CD8 on CD8+ cells isolated from rat blood (rat, UniProt P07725 27-236); test: FACS with CD8+ cells isolated from rat blood
T6 construct: whole, on cells
T6 sequence (looked up): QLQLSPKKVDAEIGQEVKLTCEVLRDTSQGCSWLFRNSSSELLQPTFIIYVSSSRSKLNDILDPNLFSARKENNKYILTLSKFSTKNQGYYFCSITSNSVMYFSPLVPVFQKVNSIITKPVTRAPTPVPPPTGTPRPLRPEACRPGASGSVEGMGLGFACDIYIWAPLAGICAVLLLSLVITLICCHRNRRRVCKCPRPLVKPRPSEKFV

[12] = target: T7, mouse CD8 on CD8+ cells isolated from mouse blood (mouse, UniProt P01731 28-247); test: FACS with CD8+ cells isolated from mouse blood
T7 construct: whole, on cells
T7 sequence (P01731 28-247): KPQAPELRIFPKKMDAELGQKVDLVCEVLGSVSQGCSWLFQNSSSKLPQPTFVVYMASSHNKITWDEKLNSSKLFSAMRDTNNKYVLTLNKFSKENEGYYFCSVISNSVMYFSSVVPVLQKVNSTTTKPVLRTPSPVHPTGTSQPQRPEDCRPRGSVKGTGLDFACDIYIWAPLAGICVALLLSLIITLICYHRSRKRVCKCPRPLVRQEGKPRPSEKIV

T1 sequence (P01732 22-182): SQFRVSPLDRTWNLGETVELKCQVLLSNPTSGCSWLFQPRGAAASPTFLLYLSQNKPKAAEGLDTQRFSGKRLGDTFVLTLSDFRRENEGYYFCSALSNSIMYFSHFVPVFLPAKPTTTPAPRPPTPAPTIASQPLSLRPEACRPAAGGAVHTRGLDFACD

B1: huOKT8.v9 (Fab, V domains shown)
VH: EVQLVQSGAEVKKPGASVKVSCKASGFNIKDTYIHWVRQAPGQGLEWIGRIDPANDNTLYASKFQGRATITADTSTSTAYLELSSLRSEDTAVYYCGRGYGYYVFDHWGQGTLVTVSS
VL: DVQITQSPSSLSASVGDRVTITCRTSRSISQYLAWYQEKPGKTNKLLIYSGSTLQSGIPSRFSGSGSGTDFTLTISSLQPEDFATYYCQQHNEFPVTFGQGTKVEIKR
notes: also called OKT.v9 Fab
**Q.** For B1, which Kd [1] is on record?
**A.** 0.3 nM

**Q.** And the Kd [2]?
**A.** 103 nM

**Q.** What about the “fold improvement in binding compared to huOKT8.v1” value [3] of the same binder?
**A.** 50 fold

**Q.** What about the “Ratio of KD huOKT8.v1/KD variant for binding to huCD8” value (from here on “Ratio of KD huOKT8.v1/KD variant”) [4] of the same binder?
**A.** 37 X

**Q.** What about the Kd [5] of the same binder?
**A.** 44 nM

**Q.** What about the Kd [6] of the same binder?
**A.** 2 nM

**Q.** What about the Kd [7] of the same binder?
**A.** 121 nM

B2: huOKT8.v1 (antibody, V domains shown)
VH: B1 VH
VL: DVQITQSPSSLSASVGDRVTITCRTSRSISQYLAWYQEKPGKTNKLLIYSGSTLQSGIPSRFSGSGSGTDFTLTISSLQPEDFATYYCQQHNENPLTFGQGTKVEIK
**Q.** Which Kd [8] does the source give for B2 here?
**A.** 5250 nM

B3: huOKT8.v12 (antibody, V domains shown)
VH: B1 VH
VL: B2 VL with H91V, N94F, L96V
**Q.** How did the “Ratio of KD huOKT8.v1/KD variant” value [4] turn out when B3 was run?
**A.** 73 X

B4: huOKT8.v15 (antibody, V domains shown)
VH: B1 VH with S62R, G97T, H107T
VL: B1 VL with H91V
notes: The entries as printed are a Fab heavy chain and a whole kappa light chain
**Q.** How did the “Ratio of KD huOKT8.v1/KD variant” value [4] turn out when B4 was run?
**A.** 210 X

B5: huOKT8.v11 (Fab, V domains shown)
VH: B1 VH
VL: B1 VL with H91V, V96P
notes: also called OKT.v11 Fab
**Q.** Which results are given for B5?
**A.** Kd [1]: 0.2 nM; Kd [2]: 23 nM; fold improvement in binding compared to huOKT8.v1 [9]: 55 fold; fold improvement in binding compared to huOKT8.v1 [3]: 230 fold; EC50 (read off the curve) [10]: ~0.8 µg/mL; binding result [11]: no binding; Ratio of KD huOKT8.v1/KD variant for binding to huCD8 [4]: 37 X; Kd [5]: 13 nM; Kd [6]: 2 nM; Kd [7]: 20 nM; binding result [12]: no binding

B6: huOKT8.v10 (antibody, V domains shown)
VH: B1 VH
VL: B1 VL with V96P
notes: as for B4
**Q.** How did the “Ratio of KD huOKT8.v1/KD variant” value [4] turn out when B6 was run?
**A.** 18 X

B7: huOKT8.v17 (antibody, V domains shown)
VH: B1 VH
VL: B1 VL with Q31K, H91V
notes: as for B4
**Q.** With B7 as the binder, how does the “Ratio of KD huOKT8.v1/KD variant” value [4] read?
**A.** 210 X
